From PMC3597662

Biological target: T1, Cbp2Hb wild type (Hyperthermus butylicus, UniProt A2BLH2 1-103)
T1 sequence: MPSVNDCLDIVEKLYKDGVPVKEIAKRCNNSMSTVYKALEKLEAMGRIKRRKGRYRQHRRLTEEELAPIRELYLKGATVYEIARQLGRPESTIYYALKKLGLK
Assay: NMR

B1: CRISPR-1rHb 25 bp single repeat (dsDNA)
DNA 1: CTTGCAATTCTCTTTTGAGTTGTTC
DNA 2: GAACAACTCAAAAGAGAATTGCAAG
- binding result: binds
